Measurements published in patent US20140087995A1 (published 2014).
Each block holds one binder with its values, some of them ahead of it. Numbered stars: 1 amine (or outer) side, 2 acyl side, 3 side chain; on linkers, the order of the positions; unused ones are H or OH. Bridge positions count the residues as written; N and C are the ends. Side chains are listed from the residue outwards. Ends that are not written are not given here. * marks the point of attachment. C20 diacid = O=C(O)CCCCCCCCCCCCCCCCCCC(=O)*; γGlu = O=C(O)[C@H](CCC(=O)[*:2])N[*:1]; AEEA = NCCOCCOCC(=O)O

Tests used:
[1] = target: T1, human calcitonin receptor (human, UniProt P30988 25-474); test: SPA competition against 125I-calcitonin, membranes with human calcitonin receptor (Assay VII)
T1 construct: whole, on cells; Used as cell membranes prepared from the transfected BHK cells (Assay VII), not as intact cells; also called hCTR; hCT
T1 sequence (looked up): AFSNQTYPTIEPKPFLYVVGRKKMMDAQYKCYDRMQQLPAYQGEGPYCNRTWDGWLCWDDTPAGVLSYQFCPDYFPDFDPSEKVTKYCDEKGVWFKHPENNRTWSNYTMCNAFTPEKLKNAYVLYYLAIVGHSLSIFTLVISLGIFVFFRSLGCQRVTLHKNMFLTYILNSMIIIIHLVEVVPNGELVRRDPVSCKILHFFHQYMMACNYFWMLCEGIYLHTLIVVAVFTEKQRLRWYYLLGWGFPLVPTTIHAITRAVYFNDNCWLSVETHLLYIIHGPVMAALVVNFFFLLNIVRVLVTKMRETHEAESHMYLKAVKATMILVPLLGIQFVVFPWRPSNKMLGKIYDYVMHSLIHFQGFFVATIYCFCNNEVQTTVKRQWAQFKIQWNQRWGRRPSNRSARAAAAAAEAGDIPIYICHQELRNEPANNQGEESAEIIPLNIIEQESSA
Method in brief: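 BHK hCTR membranes 35 ng/μL + SPA beads 0.05 mg/well; buffer 50 mM Hepes pH 7.4, 1 mM CaCl2, 5 mM MgCl₂, 0.1% OA, 0.02% Tween20. 120 min, 25° C., shaking. Scintillation count; IC50 by one-site binding competition.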

[2] = target: T2, human amylin receptor (human calcitonin receptor co-expressed with RAMP-3; amylin 3(a) receptor) (human, UniProt P30988 25-474; O60896 24-148, limits assumed); test: ratio of hCTR binding IC50 to hAmylin-R binding IC50 (reference: human calcitonin receptor)
T2 construct: whole, on cells; Used as cell membranes prepared from Amylin 3(a)/CRE-luc BHK cells (Assay V), not as intact cells; also called hAmylin-R; hAmylinR
T2 sequence (looked up) 1: T1 sequence (looked up)
T2 sequence (looked up) 2: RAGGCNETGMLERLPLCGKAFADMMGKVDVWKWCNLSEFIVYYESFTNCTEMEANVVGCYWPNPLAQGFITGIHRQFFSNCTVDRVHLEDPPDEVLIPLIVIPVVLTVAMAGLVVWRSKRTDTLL
Protocol: The resulting pellet was resuspended, homogenized and centrifuged (20.000 rpm, 15 min) in a buffer containing 20 mM Na-HEPES and 0.1 mM EDTA (pH 7.4, buffer 2). The resulting pellet was resuspended in buffer 2 and protein concentration was measured (BCA protein Assay, Pierce). The homogenate was kept cold during the whole procedure. The membranes were kept at −80° C. until use. The assay was performed in a 384 well Optiplate (PerkinElmer) in a total volume of 40 ul. Membranes were mixed with SPA beads. Final concentration of membranes 35 ng/μL final and SPA beads was 0.05 mg/well. Test-compounds were dissolved in DMSO and further diluted in assay buffer (50 mM Hepes, pH 7.4, 1 mM CaCl2, 5 mM MgCl₂, 0.1% OA and 0.02% Tween20). […] The final mixture was incubated with shaking at 400 rpm for 120 min at 25° C. prior to centrifugation (1500 rpm, 10 min). Samples were analyzed on TopCounter™ (Packard). The IC₅₀ was calculated using (one site binding competition analysis) GraphPad Prism5 as a measure of receptor affinity.
Membranes were prepared in the following way; the cells were rinsed with PBS and incubated with Versene for approximately 5 min before harvesting. The cells were flushed with PBS and the cell-suspension was centrifuged for 5 min at 1000 rpm. Cells were homogenized (Ultrathurrax) in a buffer containing 20 mM Na-HEPES and 10 mM EDTA (pH 7.4) and centrifuged at 20.000 rpm for 15 min. The resulting pellet was resuspended, homogenized and centrifuged (20.000 rpm, 15 min) in a buffer containing 20 mM Na-HEPES and 0.1 mM EDTA (pH 7.4, buffer 2). The resulting pellet was resuspended in buffer 2 and protein concentration was measured (BCA protein Assay, Pierce). The homogenate was kept cold during the whole procedure. The membranes were kept at −80° C. until use. Assay was performed in a 384 well Optiplate (PerkinElmer) in a total volume of 40 ul. Membranes were mixed with SPA beads.

B1: N^ε1-[2-[2-[2-[[(4S)-4-carboxy-4-(19-carboxynonadecanoylamino)butanoyl]amino]ethoxy]ethoxy]acetyl]-[Arg14,Arg17,Pro21,Pro27,Pro31]-h-amylin (peptide)
peptide: K([AEEA-γGlu-C20 diacid])CNTATCATQRLARFLRHSSPNFGAIPSSTPVGSNTY-NH2
modifications: disulfide 2-7; N-terminus assumed
SMILES: CC[C@H](C)[C@H](NC(=O)[C@H](C)NC(=O)CNC(=O)[C@H](Cc1ccccc1)NC(=O)[C@H](CC(N)=O)NC(=O)[C@@H]1CCCN1C(=O)[C@H](CO)NC(=O)[C@H](CO)NC(=O)[C@H](Cc1c[nH]cn1)NC(=O)[C@H](CCCNC(=N)N)NC(=O)[C@H](CC(C)C)NC(=O)[C@H](Cc1ccccc1)NC(=O)[C@H](CCCNC(=N)N)NC(=O)[C@H](C)NC(=O)[C@H](CC(C)C)NC(=O)[C@H](CCCNC(=N)N)NC(=O)[C@H](CCC(N)=O)NC(=O)[C@@H](NC(=O)[C@H](C)NC(=O)[C@@H]1CSSC[C@H](NC(=O)[C@@H](N)CCCCNC(=O)COCCOCCNC(=O)CC[C@H](NC(=O)CCCCCCCCCCCCCCCCCCC(=O)O)C(=O)O)C(=O)N[C@@H](CC(N)=O)C(=O)N[C@@H]([C@@H](C)O)C(=O)N[C@@H](C)C(=O)N[C@@H]([C@@H](C)O)C(=O)N1)[C@@H](C)O)C(=O)N1CCC[C@H]1C(=O)N[C@@H](CO)C(=O)N[C@@H](CO)C(=O)N[C@H](C(=O)N1CCC[C@H]1C(=O)N[C@H](C(=O)NCC(=O)N[C@@H](CO)C(=O)N[C@@H](CC(N)=O)C(=O)N[C@H](C(=O)N[C@@H](Cc1ccc(O)cc1)C(N)=O)[C@@H](C)O)C(C)C)[C@@H](C)O
notes: also called compound 64
IC50 [1]: 56 nM
Ratio hCT/hAmylin binding [2]: 126

B3: N^ε1-[2-[2-[2-[[(4S)-4-carboxy-4-(19-carboxynonadecanoylamino)butanoyl]amino]ethoxy]ethoxy]acetyl]-[Arg17,Pro21,Pro27,Pro28,Pro34]-h-amylin (peptide)
peptide: K([AEEA-γGlu-C20 diacid])CNTATCATQRLANFLRHSSPNFGAIPPSTNVGPNTY-NH2
modifications: disulfide 2-7; N-terminus assumed
SMILES: CC[C@H](C)[C@H](NC(=O)[C@H](C)NC(=O)CNC(=O)[C@H](Cc1ccccc1)NC(=O)[C@H](CC(N)=O)NC(=O)[C@@H]1CCCN1C(=O)[C@H](CO)NC(=O)[C@H](CO)NC(=O)[C@H](Cc1c[nH]cn1)NC(=O)[C@H](CCCNC(=N)N)NC(=O)[C@H](CC(C)C)NC(=O)[C@H](Cc1ccccc1)NC(=O)[C@H](CC(N)=O)NC(=O)[C@H](C)NC(=O)[C@H](CC(C)C)NC(=O)[C@H](CCCNC(=N)N)NC(=O)[C@H](CCC(N)=O)NC(=O)[C@@H](NC(=O)[C@H](C)NC(=O)[C@@H]1CSSC[C@H](NC(=O)[C@@H](N)CCCCNC(=O)COCCOCCNC(=O)CC[C@H](NC(=O)CCCCCCCCCCCCCCCCCCC(=O)O)C(=O)O)C(=O)N[C@@H](CC(N)=O)C(=O)N[C@@H]([C@@H](C)O)C(=O)N[C@@H](C)C(=O)N[C@@H]([C@@H](C)O)C(=O)N1)[C@@H](C)O)C(=O)N1CCC[C@H]1C(=O)N1CCC[C@H]1C(=O)N[C@@H](CO)C(=O)N[C@H](C(=O)N[C@@H](CC(N)=O)C(=O)N[C@H](C(=O)NCC(=O)N1CCC[C@H]1C(=O)N[C@@H](CC(N)=O)C(=O)N[C@H](C(=O)N[C@@H](Cc1ccc(O)cc1)C(N)=O)[C@@H](C)O)C(C)C)[C@@H](C)O
notes: also called compound 55
IC50 [1]: 2.17 nM
Ratio hCT/hAmylin binding [2]: 51.8

B5: N^ε1-[2-[2-[2-[[(4S)-4-carboxy-4-(19-carboxynonadecanoylamino)butanoyl]amino]ethoxy]ethoxy]acetyl]-[Arg17,Pro21,Pro27,Pro28,Pro31]-h-amylin (peptide)
peptide: K([AEEA-γGlu-C20 diacid])CNTATCATQRLANFLRHSSPNFGAIPPSTPVGSNTY-NH2
modifications: disulfide 2-7
notes: also called compound 53
IC50 [1]: 5.38 nM
Ratio hCT/hAmylin binding [2]: 104

Further lines, results first:

IC50 [1]: 2.09 nM
Ratio hCT/hAmylin binding [2]: 42.6
B2: N^ε1-[2-[2-[2-[[(4S)-4-carboxy-4-(19-carboxynonadecanoylamino)butanoyl]amino]ethoxy]ethoxy]acetyl]-[Arg17,Pro21,Pro27,Pro29,Pro34]-h-amylin (peptide)
peptide: K([AEEA-γGlu-C20 diacid])CNTATCATQRLANFLRHSSPNFGAIPSPTNVGPNTY-NH2
modifications: disulfide 2-7; N-terminus assumed
SMILES: CC[C@H](C)[C@H](NC(=O)[C@H](C)NC(=O)CNC(=O)[C@H](Cc1ccccc1)NC(=O)[C@H](CC(N)=O)NC(=O)[C@@H]1CCCN1C(=O)[C@H](CO)NC(=O)[C@H](CO)NC(=O)[C@H](Cc1c[nH]cn1)NC(=O)[C@H](CCCNC(=N)N)NC(=O)[C@H](CC(C)C)NC(=O)[C@H](Cc1ccccc1)NC(=O)[C@H](CC(N)=O)NC(=O)[C@H](C)NC(=O)[C@H](CC(C)C)NC(=O)[C@H](CCCNC(=N)N)NC(=O)[C@H](CCC(N)=O)NC(=O)[C@@H](NC(=O)[C@H](C)NC(=O)[C@@H]1CSSC[C@H](NC(=O)[C@@H](N)CCCCNC(=O)COCCOCCNC(=O)CC[C@H](NC(=O)CCCCCCCCCCCCCCCCCCC(=O)O)C(=O)O)C(=O)N[C@@H](CC(N)=O)C(=O)N[C@@H]([C@@H](C)O)C(=O)N[C@@H](C)C(=O)N[C@@H]([C@@H](C)O)C(=O)N1)[C@@H](C)O)C(=O)N1CCC[C@H]1C(=O)N[C@@H](CO)C(=O)N1CCC[C@H]1C(=O)N[C@H](C(=O)N[C@@H](CC(N)=O)C(=O)N[C@H](C(=O)NCC(=O)N1CCC[C@H]1C(=O)N[C@@H](CC(N)=O)C(=O)N[C@H](C(=O)N[C@@H](Cc1ccc(O)cc1)C(N)=O)[C@@H](C)O)C(C)C)[C@@H](C)O
notes: also called compound 56

IC50 [1]: 4.38 nM
Ratio hCT/hAmylin binding [2]: 146
B4: N^ε1-[2-[2-[2-[[(4S)-4-carboxy-4-(19-carboxynonadecanoylamino)butanoyl]amino]ethoxy]ethoxy]acetyl]-[Arg17,Pro21,Pro27,Pro29,Pro31]-h-amylin (peptide)
peptide: K([AEEA-γGlu-C20 diacid])CNTATCATQRLANFLRHSSPNFGAIPSPTPVGSNTY-NH2
modifications: disulfide 2-7; N-terminus assumed
SMILES: CC[C@H](C)[C@H](NC(=O)[C@H](C)NC(=O)CNC(=O)[C@H](Cc1ccccc1)NC(=O)[C@H](CC(N)=O)NC(=O)[C@@H]1CCCN1C(=O)[C@H](CO)NC(=O)[C@H](CO)NC(=O)[C@H](Cc1c[nH]cn1)NC(=O)[C@H](CCCNC(=N)N)NC(=O)[C@H](CC(C)C)NC(=O)[C@H](Cc1ccccc1)NC(=O)[C@H](CC(N)=O)NC(=O)[C@H](C)NC(=O)[C@H](CC(C)C)NC(=O)[C@H](CCCNC(=N)N)NC(=O)[C@H](CCC(N)=O)NC(=O)[C@@H](NC(=O)[C@H](C)NC(=O)[C@@H]1CSSC[C@H](NC(=O)[C@@H](N)CCCCNC(=O)COCCOCCNC(=O)CC[C@H](NC(=O)CCCCCCCCCCCCCCCCCCC(=O)O)C(=O)O)C(=O)N[C@@H](CC(N)=O)C(=O)N[C@@H]([C@@H](C)O)C(=O)N[C@@H](C)C(=O)N[C@@H]([C@@H](C)O)C(=O)N1)[C@@H](C)O)C(=O)N1CCC[C@H]1C(=O)N[C@@H](CO)C(=O)N1CCC[C@H]1C(=O)N[C@H](C(=O)N1CCC[C@H]1C(=O)N[C@H](C(=O)NCC(=O)N[C@@H](CO)C(=O)N[C@@H](CC(N)=O)C(=O)N[C@H](C(=O)N[C@@H](Cc1ccc(O)cc1)C(N)=O)[C@@H](C)O)C(C)C)[C@@H](C)O
notes: also called compound 54
